Reference: publication PMC10003650, “Characterization of a New Glucose-Tolerant GH1 β-Glycosidase from Aspergillus fumigatus with Transglycosylation Activity” (International Journal of Molecular Sciences, 2023)

Columns and labels:
purified protein = substrate: O=[N+]([O-])c1ccc(O[C@@H]2O[C@H](CO)[C@@H](O)[C@H](O)[C@H]2O)cc1; experiment: purified protein; assay type: biochemical, Aspergillus fumigatus; conditions: 50 mM sodium phosphate pH 6.0, 40 °C, 30 min
[1] = substrate: OCc1ccccc1O[C@@H]1O[C@H](CO)[C@@H](O)[C@H](O)[C@H]1O; experiment: DNS method for released glucose, non-linear regression; assay type: biochemical, Aspergillus fumigatus; conditions: 50 mM sodium phosphate pH 6.0, 40 °C, 30 min
Description: DNS method for released glucose, non-linear regression on AfBgl1.3

B1: AfBgl1.3 (Aspergillus fumigatus Af293) (protein)
chain: MGSTTTSTLPPDFLWGFATASYQIEGAVDEDGRGPSIWDTFCKIPGKIAGGASGEVACDSYHRTHEDIALLKECGAKAYRFSISWSRVIPLGGRNDPVNEKGLQHYVKFVDDLLAAGITPLVTLFHWDLPDALDKRYGGLLNKEEFVADFANYARVMFNAFGSKVKYWITFNEPWCSSVLGYNVGQFAPGRTSDRTKSPVGDGSREPWIVGHNILVAHGAAVKIYREEFKPRDGGEIGITLNGDWAEPWDPENPADVEACDRKIEFAISWFADPIYHGKYPDSMVKQLGDRLPTWTPEDIALVHGSNDFYGMNHYCANYIKAKTGEPDPNDVAGNLEILLQNKNGEWIGPETQSPWLRPHPIGFRKLLKWLSDRYNQPKIYVTENGTSLKGESDLPVDQIVNDDFRVQYFREYIAAMADAYTLDGVNVRAYMAWSLMDNFEWAEGYETRFGVTFVDYANNQRRIPKKSAKVLREIFDQYIEKA
Purified protein
  Km: 7.6 ± 0.8 mM
  Vmax: 656 µmol/min/mg
  kcat: 596 s⁻¹
  kcat/Km: 78000 M⁻¹ s⁻¹
[1]
  Km: 17.6 ± 1.9 mM
  Vmax: 706 µmol/min/mg
  kcat: 622 s⁻¹
  kcat/Km: 35000 M⁻¹ s⁻¹
